This is an account of results in patent CN113512111A (BEIJING MABWORKS BIOTECH CO LTD, dated 2021).

By EC50 is commonly meant the concentration that produces a half-maximal response. Read a low EC50 as an effect from little substance. For orientation: Kd means a measure of binding affinity in units of concentration. The low end stands for tighter binding, the high end for weaker binding.

In one assay the target is FcγRIIIa(158V) (UniProt P08637 17-208).
In another assay the target is C1q蛋白 (UniProt P02745 23-245; P02746 28-253; P02747 29-245).
Assay [1] deals with T1, 埃博拉病毒表面抗原GP蛋白 (soluble GP used as the analyte in BIAcore) (埃博拉病毒 (Ebola virus), UniProt Q05320 33-650).
T1 sequence: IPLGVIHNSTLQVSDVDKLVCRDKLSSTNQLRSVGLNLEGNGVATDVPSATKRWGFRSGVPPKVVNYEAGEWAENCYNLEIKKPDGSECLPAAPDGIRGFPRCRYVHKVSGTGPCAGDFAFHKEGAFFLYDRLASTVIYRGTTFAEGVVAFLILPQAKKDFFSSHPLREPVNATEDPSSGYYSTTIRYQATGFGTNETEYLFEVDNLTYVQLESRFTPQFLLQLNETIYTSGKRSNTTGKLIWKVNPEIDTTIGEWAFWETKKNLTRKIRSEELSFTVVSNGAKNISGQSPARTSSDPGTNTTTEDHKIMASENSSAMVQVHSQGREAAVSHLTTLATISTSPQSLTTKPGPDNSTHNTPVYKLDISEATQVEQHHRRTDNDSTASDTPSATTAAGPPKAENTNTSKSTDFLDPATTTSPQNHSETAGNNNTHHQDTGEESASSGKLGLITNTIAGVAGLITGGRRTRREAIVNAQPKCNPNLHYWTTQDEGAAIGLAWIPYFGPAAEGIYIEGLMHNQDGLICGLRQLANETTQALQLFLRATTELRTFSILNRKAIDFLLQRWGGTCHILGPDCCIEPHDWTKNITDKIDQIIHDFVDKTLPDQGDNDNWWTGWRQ

Assay [2] concerns the target T2, 埃博拉GP蛋白 on 埃博拉假病毒(扎伊尔型) (HIV-backbone luciferase pseudovirus) (埃博拉病毒(扎伊尔型) (Zaire ebolavirus), UniProt Q05320 33-676).
T2 sequence: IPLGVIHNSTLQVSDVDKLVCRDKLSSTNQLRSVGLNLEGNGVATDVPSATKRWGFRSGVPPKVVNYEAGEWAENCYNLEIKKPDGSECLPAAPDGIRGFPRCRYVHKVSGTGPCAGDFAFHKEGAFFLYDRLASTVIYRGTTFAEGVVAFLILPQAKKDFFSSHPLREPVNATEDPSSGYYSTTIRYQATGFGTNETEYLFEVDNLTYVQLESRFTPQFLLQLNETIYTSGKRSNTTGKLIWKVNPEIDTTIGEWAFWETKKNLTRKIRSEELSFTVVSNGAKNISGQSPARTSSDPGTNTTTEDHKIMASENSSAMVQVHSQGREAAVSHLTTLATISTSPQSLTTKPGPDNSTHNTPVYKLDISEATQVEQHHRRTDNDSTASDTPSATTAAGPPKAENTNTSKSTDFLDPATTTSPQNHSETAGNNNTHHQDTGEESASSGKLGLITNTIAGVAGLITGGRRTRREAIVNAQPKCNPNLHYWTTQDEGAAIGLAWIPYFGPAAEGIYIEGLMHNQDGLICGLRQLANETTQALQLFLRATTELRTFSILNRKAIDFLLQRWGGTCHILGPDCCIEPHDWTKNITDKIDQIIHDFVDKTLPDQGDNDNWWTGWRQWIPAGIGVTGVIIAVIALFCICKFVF
Briefly: cell-based or functional assay.

Chain of FcγRIIIa(158V) (P08637 17-208 F176V limits assumed): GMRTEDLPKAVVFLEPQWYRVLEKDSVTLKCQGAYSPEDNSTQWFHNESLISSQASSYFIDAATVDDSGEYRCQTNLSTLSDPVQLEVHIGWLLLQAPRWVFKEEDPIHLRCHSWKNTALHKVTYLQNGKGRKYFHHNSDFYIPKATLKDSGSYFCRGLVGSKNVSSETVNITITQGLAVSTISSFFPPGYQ
Chain of C1q蛋白 (P02745 23-245 limits assumed, chain 1 of 3): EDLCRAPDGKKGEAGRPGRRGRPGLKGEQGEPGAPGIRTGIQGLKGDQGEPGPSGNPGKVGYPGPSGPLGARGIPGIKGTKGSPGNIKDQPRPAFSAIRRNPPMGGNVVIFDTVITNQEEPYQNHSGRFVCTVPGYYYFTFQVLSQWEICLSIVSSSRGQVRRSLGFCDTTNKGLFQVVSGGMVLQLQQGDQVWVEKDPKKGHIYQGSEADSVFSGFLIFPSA
Chain of C1q蛋白 (P02746 28-253 limits assumed, chain 2 of 3): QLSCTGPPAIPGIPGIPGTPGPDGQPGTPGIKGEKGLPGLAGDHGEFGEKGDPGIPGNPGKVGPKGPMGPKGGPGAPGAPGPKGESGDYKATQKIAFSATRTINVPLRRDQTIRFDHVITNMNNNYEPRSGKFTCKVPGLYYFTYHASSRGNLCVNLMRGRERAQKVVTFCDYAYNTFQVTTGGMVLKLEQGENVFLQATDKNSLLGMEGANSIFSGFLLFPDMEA
Chain of C1q蛋白 (P02747 29-245 limits assumed, chain 3 of 3): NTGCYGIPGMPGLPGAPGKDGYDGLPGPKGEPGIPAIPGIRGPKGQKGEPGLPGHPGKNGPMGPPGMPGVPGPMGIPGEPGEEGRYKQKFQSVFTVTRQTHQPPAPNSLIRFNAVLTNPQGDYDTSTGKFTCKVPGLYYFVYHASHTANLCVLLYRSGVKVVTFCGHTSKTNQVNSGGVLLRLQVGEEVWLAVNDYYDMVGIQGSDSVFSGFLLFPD

B1: 抗体MIL77-1 (anti-Ebola virus glycoprotein monoclonal antibody, afucosylated, made in CHOK1-AF cells) (antibody)
heavy: not shown
light: DIQMTQSPASLSVSVGETVSITCRASENIYSSLAWYQQKQGKSPQLLVYSATILADGVPSRFSGSGSGTQYSLKINSLQSEDFGTYYCQHFWGTPYTFGGGTKLEIKRTVAAPSVFIFPPSDEQLKSGTASVVCLLNNFYPREAKVQWKVDNALQSGNSQESVTEQDSKDSTYSLSSTLTLSKADYEKHKVYACEVTHQGLSSPVTKSFNRGEC
Turning to B1, the EC50 with FcγRIIIa(158V) lay in the range of 0.062 to 0.064 mg/L. In addition, the EC50 in the assay with C1q蛋白 lay in the range of 0.818 to 0.96 mg/L. In assay [1], the Kd was 0.0506 to 0.0538 µM. Besides, in assay [2], the “体外假病毒感染细胞中和活性 半数抑制浓度(IC50), HEK293细胞体系, batch M20141202” value was 4.59 mg/L and the “体外假病毒感染细胞中和活性 半数抑制浓度(IC50), Huh7细胞体系, luciferase reporter” value came to 0.799 mg/L.

B2: 抗体MIL77-2 (anti-Ebola virus glycoprotein monoclonal antibody, afucosylated, made in CHOK1-AF cells) (antibody)
heavy: not shown
light: DIQMTQSPASLSASVGETVTITCRASENIYSYLAWYQQKQGKSPQLLVYNAKTLIEGVPSRFSGSGSGTQFSLKINSLQPEDFGSYFCQHHFGTPFTFGSGTELEIKRTVAAPSVFIFPPSDEQLKSGTASVVCLLNNFYPREAKVQWKVDNALQSGNSQESVTEQDSKDSTYSLSSTLTLSKADYEKHKVYACEVTHQGLSSPVTKSFNRGEC
As for B2, the EC50 with FcγRIIIa(158V) fell in the range of 0.054 to 0.073 mg/L. Moreover, the EC50 with C1q蛋白 is 0.772 to 0.968 mg/L. The Kd in assay [1] is 0.0319 to 0.0362 µM. Also, in assay [2], the “体外假病毒感染细胞中和活性 半数抑制浓度(IC50), HEK293细胞体系, batch M20141202” value was 0.058 mg/L; the “体外假病毒感染细胞中和活性 半数抑制浓度(IC50), HEK293细胞体系, batch M20141203” value was found to be 0.023 mg/L; the “体外假病毒感染细胞中和活性 半数抑制浓度(IC50), HEK293细胞体系, batch M20150101” value is 0.017 mg/L; the “体外假病毒感染细胞中和活性 半数抑制浓度(IC50), Huh7细胞体系, luciferase reporter” value came to 0.359 mg/L.
